Measurements as given in the supplement of paper PMC9170038.

Test system: MS2 coat protein
Assay: apparent KD of MS2 coat protein; designed switch direction (-1 OFF switch, 1 ON switch): -1; higher = weaker reporter binding
In short: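 Normalised cluster fluorescence was curve-fitted, and each design's median over clusters is its apparent KD. Before this, SNAP-549-labelled MS2 coat protein was titrated from 0.7 or 1.5 nM, doubling to 3 µM, over RNA switches transcribed on Illumina chips by stalled E. coli RNA polymerase. Titrations had no input, 200 uM small-molecule ligand, or an oligonucleotide input, and steps lasted 0.8–1.5 h (lowest) to 10–20 min (highest).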

[1] = Eterna round: R95, input ligand: FMN 200 uM
[2] = Eterna round: R95, input ligand: microRNA oligo, concentration not stated
[3] = Eterna round: R95, input ligand: none
[4] = input ligand: microRNA oligo, concentration not stated

## AGAUCACAUGAGGAUCACCCAUGUCAGGAUAUCGUCACUGGAGCUUCGGCUCCAGUGACGAGAAGGGAUAAUUA [E1/4-A1] (Eterna round: R97, puzzle: Exclusion 1)
Input ligand: FMN 200 uM
  apparent KD of MS2 coat protein: 124 nM
Input ligand: none
  apparent KD of MS2 coat protein: 55 nM

## AAGAAGAAACAAGCUUUUUGCACGUCAUAUAGUGACGCAACAUGAGGAUCACCCAUGUAUAGGGUGGGAAAGGAUAG [JR_SV3TOV2_Sub047] (puzzle: Sensor v3, turn-off variant 2)
[1]
  apparent KD of MS2 coat protein: 338 nM
[2]
  apparent KD of MS2 coat protein: 70 nM
[3]
  apparent KD of MS2 coat protein: 423 nM

## CUACCCUGAGGAUAUCCACCGUGAUACAUGAGGAUCACCCAUGUUAAUGCCUGAGUUCCCGGAGAAGGCAGAUUCC [Megrez2] (Eterna round: R97, puzzle: Exclusion 5)
Input ligand: FMN 200 uM
  apparent KD of MS2 coat protein: 27.2 nM
Input ligand: none
  apparent KD of MS2 coat protein: 30.5 nM

## CAUGCUUCGGCAUGUACAAGCUUUUUGCUCGUCUUAUUAACAUGAGGAUCACCCAUGUUAAUGAGACCUCAUGUAUU [Sensor v3 - turn-off variant 2 - 8] (puzzle: Sensor v3, turn-off variant 2)
[1]
  apparent KD of MS2 coat protein: 13.6 nM
[2]
  apparent KD of MS2 coat protein: 16.7 nM
[3]
  apparent KD of MS2 coat protein: 11.4 nM

## CGCUAGUCAGGAUAUACGAACAUGUCAAAAGACGUGAAGGGACAUGAGGAUCACCCAUGUAGAAGGGACUAGCU [salish99_ex2_r3_013] (puzzle: Exclusion 2)
[2]
  apparent KD of MS2 coat protein: 24.7 nM

## UUUAUAAUUUCAAUCUUCGCUGGCGAACUUACGCCAGCCACAUGAGGAUCACCCAUGUUUUUUGUUCGUUUUAUUCU [Gelaoren] (puzzle: Sensor v3, turn-off variant 2)
[1]
  apparent KD of MS2 coat protein: 19.5 nM
[2]
  apparent KD of MS2 coat protein: 66.6 nM
[3]
  apparent KD of MS2 coat protein: 21.1 nM

## AAUACAAGUAAGAUCCUAAACAUGAGGAUCACCCAUGUGCUCGUCUUAUAAAGUACUAUCACGAAAGUGAUAGUACA [Sensor 3, v1 - 66] (puzzle: Sensor v3, turn-off variant 1)
[1]
  apparent KD of MS2 coat protein: 48.7 nM
[2]
  apparent KD of MS2 coat protein: 314 nM
[3]
  apparent KD of MS2 coat protein: 37.5 nM

## CAGUACUGAGGAUAUACAUGAGGAUCACCCAUGUGAUUCAGUGCACGCGUACGUGUACGUAGAAGGCAGUACUG [JL 3.27 m2] (Eterna round: R97, puzzle: Exclusion 3)
Input ligand: FMN 200 uM
  apparent KD of MS2 coat protein: 761 nM
Input ligand: none
  apparent KD of MS2 coat protein: 49 nM

## GGUAGGUGUGACUUGGGUGACAUGAGGAUCACCCAUGUCACAAGCUUGUUGCUCGCCUUGUAAUUAACCCAUGUCAC [LRO Sensor-off var1-29 mod of Stov1-13-A1 by Brourd] (Eterna round: R97, puzzle: Sensor, turn-off variant 1)
Input ligand: FMN 200 uM
  apparent KD of MS2 coat protein: 21.5 nM
Input ligand: none
  apparent KD of MS2 coat protein: 21.5 nM

## AGUAACAGAGGAUAUACUAUUUUAUGUGUUUAUUGUUUUGAACAUGAGGAUCACCCAUGUAGAAGGCUGAAUAA [JMF 95] (puzzle: Exclusion 2)
[2]
  apparent KD of MS2 coat protein: 24.5 nM

## AUGGGUCCUCACGGAGCUACAUGAGGAUCACCCAUGUGGAUUGAGGAUAUCGACAGCCGACGGCUCGAGAAGGCAGUUUACUGU [Ex NG3 #96] (Eterna round: R96, puzzle: Exclusion NG 3)
Input ligand: FMN 200 uM
  apparent KD of MS2 coat protein: 35 nM
[4]
  apparent KD of MS2 coat protein: 23.2 nM
Input ligand: none
  apparent KD of MS2 coat protein: 26.4 nM

## GUUUUCAGACGGAGAUCCUACAUGAGGAUCACCCAUGUCUCUCUUGUUUUUUGCUCGUCUUAUCCUCCUCUGUUCUC [Elimod 31 - Jieux - Sensor, turn-off variant 1] (Eterna round: R97, puzzle: Sensor, turn-off variant 1)
Input ligand: FMN 200 uM
  apparent KD of MS2 coat protein: 467 nM
Input ligand: none
  apparent KD of MS2 coat protein: 520 nM

## UUUUUAUAUGAAGGAUAUACUUAACAUGAGGAUCACCCAUGUGGUGUUGUGAGUGAGUGAGUUUAGUAGAAGGUCAAUUCUCUU [JMF's solution 81] (Eterna round: R96, puzzle: Exclusion NG 2)
Input ligand: FMN 200 uM
  apparent KD of MS2 coat protein: 989 nM
[4]
  apparent KD of MS2 coat protein: 156 nM
Input ligand: none
  apparent KD of MS2 coat protein: 492 nM

## GGUUGGCGAGGAUAUACAUGAGGAUCACCCAUGUGAGAAAGAAAAGUGAGGAAGAAAAGUAGAAGGCGCUGACG [Mat - Exclusion 3 - Mod of Salish D2] (puzzle: Exclusion 3)
[1]
  apparent KD of MS2 coat protein: 583 nM
[2]
  apparent KD of MS2 coat protein: 53.4 nM
[3]
  apparent KD of MS2 coat protein: 99.8 nM

## AGCCAAGCAGGAUAUGCCCGGGAUAACAUGAGGAUCACCCAUGUGACCGAUUGAUGUCCUGCAGAAGGGCUUGGGA [Mod of ViennaUCT - Jieux - Exclusion 5] (Eterna round: R97, puzzle: Exclusion 5)
Input ligand: FMN 200 uM
  apparent KD of MS2 coat protein: 83.2 nM
Input ligand: none
  apparent KD of MS2 coat protein: 17.9 nM

## AAGAAGUCAGGAUAUACAUGAGGAUCACCCAUGUAAAAGAAAGAAAAGGGAAAGAAAAGUAGAAGGGACAAGAA [Menkheperre Thutmose III] (Eterna round: R96, puzzle: Exclusion 3)
Input ligand: FMN 200 uM
  apparent KD of MS2 coat protein: 22.9 nM
[4]
  apparent KD of MS2 coat protein: 21.8 nM
Input ligand: none
  apparent KD of MS2 coat protein: 27.2 nM

## CAAAAGAGAGGAUAUACAUGAGGAUCACCCAUGUAAAGUCCGCUGGUUGUUCAGAUAUGUAGAAGGCUCGUGUC [EX3 C.5] (Eterna round: R97, puzzle: Exclusion 3)
Input ligand: FMN 200 uM
  apparent KD of MS2 coat protein: 16.9 nM
Input ligand: none
  apparent KD of MS2 coat protein: 14.4 nM

## AAUUCACAUGAGGAUCACCCAUGUCAGGAUAUGCUGACGCGGGUUUCGGUGCGUGUUGGCAGAAGGGACAGCUA (puzzle: Exclusion 1)
[2]
  apparent KD of MS2 coat protein: 144 nM

## AGCUGUGGCCGAGGAUAUCUAUCUUCAAUAACCGAAAUAUAAUCGGACAUGAGGAUCACCCAUGUAGAGAAGGCGGUCUCAGCA [Eli eng2 - 091] (Eterna round: R96, puzzle: Exclusion NG 2)
[4]
  apparent KD of MS2 coat protein: 27.3 nM

## UUUAAUUUUUUUUUUUUACAAGCUUUUUGCUCGUCUUAUACAUGAGGAUCACCCAUGUAGAUGGAGGAUAAAUUAUC [JMF 32] (puzzle: Sensor v3, turn-off variant 2)
[1]
  apparent KD of MS2 coat protein: 14.4 nM
[2]
  apparent KD of MS2 coat protein: 28.9 nM
[3]
  apparent KD of MS2 coat protein: 15.2 nM

## UAAAUGUGAGGAUAUCAGGUGUGCUAGAAUACUGGUACAUCUGAGAAGGCACAUGAGGAUCACCCAUGUUCCUU [Mat - Exclusion 4 - Mod of JL - D53] (puzzle: Exclusion 4)
[2]
  apparent KD of MS2 coat protein: 15.8 nM

## GAAGAAGAGAGAAAAGAAAACAUGAGGAUCACCCAUGUGAGAAGAUGAGGGUGUAACAGGCUUUAUGCUCGUCUUAU (puzzle: Sensor v3, turn-off variant 1)
[1]
  apparent KD of MS2 coat protein: 33.6 nM
[2]
  apparent KD of MS2 coat protein: 120 nM
[3]
  apparent KD of MS2 coat protein: 40.1 nM

## AAAACUUUGAGAGGAUAUCUGAAAGGAAGUGUAAGAGAAGGCUCAGAGGACAUGAGGAUCACCCAUGUACGUCAUGGGCUCCGA [PowerStrip EXNG 1.15] (Eterna round: R96, puzzle: Exclusion NG 1)
Input ligand: FMN 200 uM
  apparent KD of MS2 coat protein: 49.8 nM
[4]
  apparent KD of MS2 coat protein: 39.6 nM
Input ligand: none
  apparent KD of MS2 coat protein: 111 nM

## GAGAUGUGAGGAUAUCUAGACCGCGGCAGAGCUGCGGUCCGAGAGAAGGCACAUGAGGAUCACCCAUGUGAUGA [Beriesan] (puzzle: Exclusion 4)
[2]
  apparent KD of MS2 coat protein: 47.3 nM

## GCGCUGCGAGGAUAUACAUGAGGAUCACCCAUGUGUCGGCAGCCAUGGUAGUACAAAUGUAGAAGGCGCGUAAA [EX3 #51] (Eterna round: R97, puzzle: Exclusion 3)
Input ligand: FMN 200 uM
  apparent KD of MS2 coat protein: 202 nM
Input ligand: none
  apparent KD of MS2 coat protein: 165 nM

## UGUUGUUACGCAGGAUAUUGCCAACAGGCAGUAGGAUAUCCGAAAGGAGAAGGACCGCCAACAGGCGAGAAGGGCGGGUUAACA [pwkr exNG2 2xF7 2xFMN.10] (Eterna round: R96, puzzle: Exclusion NG 2)
Input ligand: FMN 200 uM
  apparent KD of MS2 coat protein: 370 nM
[4]
  apparent KD of MS2 coat protein: 227 nM
Input ligand: none
  apparent KD of MS2 coat protein: 16.3 nM

## GUGUGUUGAUUAGGAUAUGCUCUAAGCAAUCGGGCAGAAGGAGUUAGACAUGAGGAUCACCCAUGUAAAUAUCGGAUCCCAACG [Eternabot solution 17] (Eterna round: R96, puzzle: Exclusion NG 1)
Input ligand: FMN 200 uM
  apparent KD of MS2 coat protein: 18.6 nM
[4]
  apparent KD of MS2 coat protein: 16.2 nM
Input ligand: none
  apparent KD of MS2 coat protein: 19.3 nM

## GAGAAACAUGAGGAUCACCCAUGUGAGGAUAUGCGUACGUUGUCCGUAGGCGACGUGCGCAGAAGGCGCAAAGG [Mat - Mod of JL D86] (puzzle: Exclusion 1)
[2]
  apparent KD of MS2 coat protein: 54.2 nM

## GGCAAUAUGUAGGAUAUCGUAUCGGAAACGAUACGAGAAGGGCAAACAUGAGGAUCACCCAUGUUCUUCAAGCC [Fiskers Ex 6 - 11] (puzzle: Exclusion 6)
[2]
  apparent KD of MS2 coat protein: 15.6 nM

## AGAAGUAGAAACCGAUCCUACAUGAGGAUCACCCAUGUAGCAAGACGUGCACGCGAAGCUCGUCAGACUACCAGAUG [salish99_TOv1_r3_017] (puzzle: Sensor v3, turn-off variant 1)
[1]
  apparent KD of MS2 coat protein: 297 nM
[2]
  apparent KD of MS2 coat protein: 108 nM
[3]
  apparent KD of MS2 coat protein: 313 nM

## AGUGUGUGGCAGGAUAUGCUAUUGAUUGGUGAAGCAGAAGGGUCUACAUGAGGAUCACCCAUGUAAGCGGUUGA [Ex6 #28] (Eterna round: R97, puzzle: Exclusion 6)
Input ligand: FMN 200 uM
  apparent KD of MS2 coat protein: 327 nM
Input ligand: none
  apparent KD of MS2 coat protein: 46.4 nM

## UGAGCAUGAGGAUAUACAAGGCGACCGUGAGGUCGAGGGUUACAUGAGGAUCACCCAUGUAGAAGGCAUGUUCU [jl-ex2-4.10] (Eterna round: R97, puzzle: Exclusion 2)
Input ligand: FMN 200 uM
  apparent KD of MS2 coat protein: 514 nM
Input ligand: none
  apparent KD of MS2 coat protein: 48.3 nM

## CUUAUGUGAGGAUAUGCCUGGCCGUGAGGCCAAAUUGAUUAGCAGAAGGCACAUGAGGAUCACCCAUGUGCGGG [jl-ex4-4.67 ViennaUCT mod] (Eterna round: R97, puzzle: Exclusion 4)
Input ligand: FMN 200 uM
  apparent KD of MS2 coat protein: 340 nM
Input ligand: none
  apparent KD of MS2 coat protein: 479 nM

## GGAAUGAGAGAGGAUAUGGGAGGGAGGACCGGACCAGAAGGCUCGACAUGAGGAUCACCCAUGUAGAGAUCCUC [AK-MS2ROC-r4-exclusion6-6.10] (Eterna round: R97, puzzle: Exclusion 6)
Input ligand: FMN 200 uM
  apparent KD of MS2 coat protein: 260 nM
Input ligand: none
  apparent KD of MS2 coat protein: 75.7 nM

## GGGCUGUCAGGAUAUCCCGGGCCCGGGUAAACCCGGGUUUGGGAGAAGGGACAUGAGGAUCACCCAUGUGGCCC [-39.8, -38.8 kcal, A 20%, 5cbis-0] (Eterna round: R97, puzzle: Exclusion 4)
Input ligand: FMN 200 uM
  apparent KD of MS2 coat protein: 34.8 nM
Input ligand: none
  apparent KD of MS2 coat protein: 34.1 nM
